From patent US20220227864A1 (AVA LIFESCIENCE, published 2022)
One block for each binder: values may come before it.

Tests used:
[1] = molecular target: T1, CLL subset 2 typical BCR on TKO cells (FIG. 1B); assay: FACS on TKO cells expressing the BCR, hybridoma supernatant
T1 construct: The light chain is the VL3-21 variant and carries R110; also called CLL subset 2 BCR; BCR of interest
From the text: (§1) For the screening procedure, different vectors for the following heavy chain (HC) and light chain (LC) combinations of the corresponding CLL-BCRs were used in the previous transformation, and these combinations were used on the surface of the BCR reconstitution system: [0080] Control (transformation vector without BCR) (see FIG. 1A). [0081] Vector with HC/LC (VL3-21) typical of CLL subset 2 (see FIG. 1B). [0082] Vector with a non-CLL subset 2 HC/LC typical for CLL subset 2 (VL3-21; without target motif R110G) (see FIG. 1C) [0083] Vector with a HC typical for CLL subset 2/a non-CLL subset 2 LC (see FIG. 1D) [0084] Vector with a non-CLL subset 2 HC/a non-CLL subset 2 LC (see FIG. 1E) [0085] Vector with HC/LC typical for CLL subset 2 (VL3-21; including mutation R110G (target motif)) (see FIG. 1F).
(§2) In the first round of selection, supernatants from multiple clones were combined and examined with respect to their binding profile to the selection matrix. A positive binding profile is given if a specific binding to the “BCR-of-Interest” is shown. Groups showing such a profile were singulated, and the binding profile of each clone was characterized again on the selection matrix in a second round of selection. Binding of the monoclonal antibodies was verified using a FACS binding assay with a fluorescently labeled anti-mouse IgG antibody. […]

[2] = molecular target: T1, CLL subset 2 typical BCR on TKO cells …; assay: FACS binding assay on TKO cells, fluorescently labeled anti-mouse IgG
From the text: as §1, §2

T1 sequence (heavy, as listed by the source, chain 1 of 2): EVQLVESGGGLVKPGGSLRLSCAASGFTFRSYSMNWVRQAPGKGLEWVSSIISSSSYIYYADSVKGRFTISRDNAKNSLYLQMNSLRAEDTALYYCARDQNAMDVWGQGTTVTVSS
T1 sequence (light, as listed by the source, chain 2 of 2): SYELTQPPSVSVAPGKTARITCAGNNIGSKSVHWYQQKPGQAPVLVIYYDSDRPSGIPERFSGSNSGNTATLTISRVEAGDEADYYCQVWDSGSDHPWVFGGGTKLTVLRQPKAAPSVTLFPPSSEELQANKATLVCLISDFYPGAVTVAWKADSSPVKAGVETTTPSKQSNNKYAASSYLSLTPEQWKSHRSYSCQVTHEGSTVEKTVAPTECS

binding result [1]: binds
B1: AVA-mAb02 (antibody, V domains shown)
VH: QVQLQQPGAELVRPGVSVKISCKGSGYTFTDYAIHWVKQSHAKSLEWIGVISTYYGDSNYNQKFKGKATMTVNKSSSTAYMELARLTSDDSAIYYCSRDTSNFDYWGQGTTLTVSS
VL: DIQMTQSPSSMYASLGERVTITCKASQDINSHLTWFQQKPGKSPKTLIYRANRLVDGVPSRFSGSGSGQDYSLTISSLEYEDMGIYYCLQYDEFPRTFGGGTKLEIK
notes: Murine monoclonal antibody; Tested as hybridoma supernatant and detected with anti-mouse IgG; also called VL3-21 specific antibody

binding result [2]: binds
B2: AVA-mAb01 (antibody, V domains shown)
VH: QVQLQQSGPGLVQPSQSLSITCTVSGFSLTSYGIHWVRQSPGKGLEWLGVIWRGGGTDSNAAFMSRLSITKDNSKSQVFFKMNSLQADDTAIYYCARSRYDEEESMNYWGQGTSVTVSS
VL: QIVLTQSPASLSASVGETVTITCRASGNIHSYLAWYQQKQGKSPQLLVYNAKTLADGVPSRFSGSGSGTQYSLKINSLQPEDFGSYYCQHFWNTPPTFGAGTKLELK
notes: Murine monoclonal antibody from a hybridoma, detected with anti-mouse IgG; also called specific monoclonal antibody against subset-2; the selected antibody
